{"source": "paper PMC4509971", "biological_target": "RNH domain of HIV-1 reverse transcriptase (RT residues 427-560) with E438N and T477A (HIV-1)", "assay": "SEC-MALS", "data": [{"substance": "RNH domain of HIV-1 reverse transcriptase (RT residues 427-560) with E438N and T477A (domain or fragment)", "values": [{"measurement": "stoichiometry N", "value": 2}]}]}
